Measured values reported in PMC4992311, “The MarR-like protein PchR (YvmB) regulates expression of genes involved in pulcherriminic acid biosynthesis and in the initiation of sporulation in Bacillus subtilis”.
One block for each molecule: values may come before it.

Legend:
[1] = target: T1, YvmB-His6 (PchR) (Bacillus subtilis (BSB1, trp+ 168 derivative?)) (UniProt P40762); test: EMSA; conditions: apparent Kd; EMSA: 1x = 20 mM Tris pH 8, 100 mM KCl, 0.5 mM DTT, 5 mM MgCl2, 0.05 mg/ml BSA, 0.05 mg/ml poly(dIdC) (from 5x buffer); 50 ng Cy5 DNA in 20 uL; 20 min at 30 C …
T1 sequence: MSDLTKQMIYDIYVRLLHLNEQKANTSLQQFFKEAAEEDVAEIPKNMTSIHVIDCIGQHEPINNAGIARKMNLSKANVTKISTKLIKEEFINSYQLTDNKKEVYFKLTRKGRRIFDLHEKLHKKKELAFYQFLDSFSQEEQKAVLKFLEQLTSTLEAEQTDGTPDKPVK

[2] = target: His-tagged YvmB protein (MarR-like regulator YvmB, renamed PchR) (B. subtilis); test: SEC; purified YvmB^His-tag fractionated on a Superdex 200 gel-filtration column; major peak with an apparent molecular mass compared with the 19.2 kDa polypeptide; no effector added
YvmB-His6 (PchR) [3] = target: T2, YvmB-His6 (PchR) (Bacillus subtilis (BSB1, trp+ 168 …, UniProt P40762 1-169)); test: EMSA; one complex; apparent Kd; EMSA: 1x = 20 mM Tris pH 8, 100 mM KCl, 0.5 mM DTT, 5 mM MgCl2, 0.05 mg/ml BSA, 0.05 mg/ml poly(dIdC) (from 5x buffer); 50 ng Cy5 DNA in 20 uL; 20 min at 30 C; conditions: protein: recombinant; tags: C-terminal His6; chain copies: 2; label: 5' Cy5
T2 sequence: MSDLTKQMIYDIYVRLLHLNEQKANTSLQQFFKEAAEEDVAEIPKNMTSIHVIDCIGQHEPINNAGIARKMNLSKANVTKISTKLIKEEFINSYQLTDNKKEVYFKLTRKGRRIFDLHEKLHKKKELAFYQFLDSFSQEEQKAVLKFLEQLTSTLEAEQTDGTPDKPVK

YvmB-His6 (PchR) [4] = target: T2, YvmB-His6 (PchR); test: EMSA; two complexes; EMSA: 1x = 20 mM Tris pH 8, 100 mM KCl, 0.5 mM DTT, 5 mM MgCl2, 0.05 mg/ml BSA, 0.05 mg/ml poly(dIdC) (from 5x buffer); 50 ng Cy5 DNA in 20 uL; 20 min at 30 C; conditions: protein: recombinant; tags: C-terminal His6; chain copies: 2; label: 5' Cy5

Molecule: P-yisI probe
Kd [1]: 2.5 nM

stoichiometry N [2]: 2
Molecule: His-tagged YvmB protein (MarR-like regulator YvmB, renamed PchR) (natural protein)

B1: P1 probe (yvmB-yvmC intergenic, palindrome I) (dsDNA)
DNA 1: TTCCAAATGTTTTTTAAGATTTTAATAATCATTTTCAATACCCATATCATGATAAATGTTTACTAGTAAACATTAGTCATTTTATCCCTTTTCCTTCCAAACGTCAATAT
DNA 2: ATATTGACGTTTGGAAGGAAAAGGGATAAAATGACTAATGTTTACTAGTAAACATTTATCATGATATGGGTATTGAAAATGATTATTAAAATCTTAAAAAACATTTGGAA
Kd (YvmB-His6 (PchR) [3]): 5 nM

B2: P2 probe (yvmB-yvmC intergenic, palindrome II) (dsDNA)
DNA 1: CCAACAATTGACAACGAAAACAAGAAAAGATAAAATAAAATTGTTCACCAGTAAACGATTTGTTTTATTGTTTCATCGTAAACTATTATTCCTAAGAAAGAAGGTAGCCT
DNA 2: AGGCTACCTTCTTTCTTAGGAATAATAGTTTACGATGAAACAATAAAACAAATCGTTTACTGGTGAACAATTTTATTTTATCTTTTCTTGTTTTCGTTGTCAATTGTTGG
binding result (YvmB-His6 (PchR) [4]): binds
